Results on three molecules are retold here after patent publication US20110064751A1 (Hoffmann-La Roche, published 2011).

Assay [1] has as its target T1, Extra Domain B of fibronectin (EDB) (UniProt P02751 1266-1356).
T1 construct: domain: Extra Domain B; construct not described; also called fibronectin Ectodomain-B
Description: BIACORE SPR, EDB immobilized on the chip, analyte at 1.56, 3.125 and 6.25 nM. For orientation: In SPR one partner is held on a chip, and binding of the other changes the refractive index at the surface.

Assay [2] addresses T1, Extra Domain B of fibronectin (EDB). Description: SPR (BIACORE), EDB immobilized on the chip, construct as analyte.
For assay [3], the target named is T2, Human TNC-A1 + avi-tag + his6-tag (human, biotinylated in vivo at the avi-tag).
T2 chain: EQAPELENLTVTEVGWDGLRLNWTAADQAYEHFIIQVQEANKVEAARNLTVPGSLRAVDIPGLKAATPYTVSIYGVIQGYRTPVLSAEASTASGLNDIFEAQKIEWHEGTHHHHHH
Description: phage display selection and ELISA on biotinylated human TNC-A1. On the procedure:
See SEQ ID NO: 59 of Table 5. The antigen was biotinylated in vivo upon expression.
Selections were carried out over 3 rounds using constant antigen concentrations at 100 nM. In round 2, capture of antigen:phage complexes was performed on neutravidin plates instead of streptavidin beads.
Background: ELISA stands for enzyme-linked immunosorbent assay.

The target in assay [4] is T3, Murine FAP ectodomain + poly-lys-tag + his6-tag (murine, UniProt P97321 27-761).
T3 construct: also called mu FAP
As to the kind of experiment: primary phage selections, ELISA and BIACORE kinetic screening. On the procedure:
See SEQ ID NOs: 53 and 55 of Table 5. Prior to selections, the antigens were coated into immunotubes at a concentration of either 10 μg/ml or 5 μg/ml, depending on round of selection.
Specific binders were defined as signals 5× higher than background and were identified by ELISA.
ELISA-positive clones were bacterially expressed as 1 mL cultures in 96-well format and supernatants were subjected to a kinetic screening experiment using BIACORE T100.

T1 sequence (P02751 1266-1356 limits assumed): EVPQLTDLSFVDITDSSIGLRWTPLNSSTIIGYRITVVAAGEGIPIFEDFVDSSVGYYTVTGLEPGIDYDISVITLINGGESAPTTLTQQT

B1: L19 IgG (L19 antibody in the human IgG1 format) (antibody, V domains shown)
VH: EVQLLESGGGLVQPGGSLRLSCAASGFTFSSFSMSWVRQAPGKGLEWVSSISGSSGTTYYADSVKGRFTISRDNSKNTLYLQMNSLRAEDTAVYYCAKPFPYFDYWGQGTLVTVSS
VL: EIVLTQSPGTLSLSPGERATLSCRASQSVSSSYLAWYQQKPGQAPRLLIYYASSRATGIPDRFSGSGSGTDFTLTISRLEPEDFAVYYCQQTGRIPPTFGQGTKVEIK
notes: Human IgG1 format; also called the IgG
As usually defined, the Kd is the free concentration of one partner at which half of the binding sites on the other are occupied at equilibrium, for simple one-to-one binding. As a reminder, the koff is the rate constant with which the complex falls apart. A higher koff goes with fast dissociation. One may read the kon as the rate constant with which the complex forms. A low value points to slow association. In assay [1], B1 showed a Kd of 0.263 nM, a koff of 0.000637 s⁻¹ and a kon of 2.42e+06 M⁻¹ s⁻¹. Also, binding in assay [2] was characterised by a dissociation constant (Kd) of 0.26 nM.

B2: 2F11 Fab (Fab, V domains shown)
VH: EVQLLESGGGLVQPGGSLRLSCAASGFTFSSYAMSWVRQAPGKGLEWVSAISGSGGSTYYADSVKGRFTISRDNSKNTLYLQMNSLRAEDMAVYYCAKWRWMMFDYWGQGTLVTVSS
VL: EIVLTQSPGTLSLSPGERATLSCRASQSVSSSYLAWYQQKPGQAPRLLIYGASSRATGVPDRFSGSGSGTDFTLTISRLEPEDFAVYYCQQGQYTPPTFGQGTKVEIK
notes: Fab fragment; also called clone 2F11
For the molecule B2, the binding result in assay [3] is “binds”.

B3: 4B8 Fab (Fab, V domains shown)
VH: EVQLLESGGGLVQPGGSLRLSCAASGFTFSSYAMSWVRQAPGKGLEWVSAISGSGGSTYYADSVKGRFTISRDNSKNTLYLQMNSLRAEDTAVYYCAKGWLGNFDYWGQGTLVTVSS
VL: EIVLTQSPGTLSLSPGERATLSCRASQSVSSSYLAWYQQKPGQAPRLLIYGASSRATGIPDRFSGSGSGTDFTLTISRLEPEDFAVYYCQQGQVIPPTFGQGTKVEIK
notes: Fab fragment; also called anti-murine FAP clone 4B8
Consider B3, for which the binding result in assay [4] was “binds”.
